Data from paper PMC11169420, “The kinase ZYG-1 phosphorylates the cartwheel protein SAS-5 to drive centriole assembly in C. elegans” (EMBO Reports, 2024).

T1: SAS-5::His6, full-length, refolded in vitro (C. elegans, UniProt Q20010 1-404, a glycine codon was introduced immediately next to initiator methionine)
T1 construct: SAS-5 of C. elegans, longer isoform SAS-5a, full length; codon-optimised gene in pET21b (NdeI/HindIII); a glycine codon was put next to the initiator methionine; Prey in the pull-downs with GST-ZYG-1 fragment baits; also called full-length SAS-5; SAS-5::6XHis; not shown: His6, C-terminal, kept
T1 sequence (looked up): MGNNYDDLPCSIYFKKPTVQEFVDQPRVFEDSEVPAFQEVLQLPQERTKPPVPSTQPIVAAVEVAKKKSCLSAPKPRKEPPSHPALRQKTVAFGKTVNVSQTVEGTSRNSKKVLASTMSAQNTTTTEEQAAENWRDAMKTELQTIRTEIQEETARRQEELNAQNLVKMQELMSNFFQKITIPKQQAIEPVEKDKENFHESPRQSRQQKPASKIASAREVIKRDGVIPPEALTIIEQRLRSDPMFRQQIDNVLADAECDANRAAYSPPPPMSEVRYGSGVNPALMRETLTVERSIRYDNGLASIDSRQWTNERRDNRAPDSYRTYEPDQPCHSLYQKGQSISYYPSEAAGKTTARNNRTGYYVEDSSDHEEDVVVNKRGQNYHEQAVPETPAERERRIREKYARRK


Tests used:
SAS-6 head domain = SAS-6 head domain (UniProt Q6UVJ0); conditions: cited from earlier work
[1] = target: T1, SAS-5::His6, full-length, refolded in …; test: pull-down; GST-ZYG-1 fragment baits (4.32 mM as printed) on magnetic glutathione beads, blocked with Odyssey blocking buffer; full-length SAS-5 prey (0.2 mM as printed) 1 h at 4 °C; washed with 50 mM Tris pH 8.0, 300 mM NaCl, 5 mM DTT; immunoblot with anti-GST and anti-SAS-5; GST alone as negative control; conditions: both partners purified

Chain of SAS-6 head domain (from UniProt Q6UVJ0) (Q6UVJ0 1-143): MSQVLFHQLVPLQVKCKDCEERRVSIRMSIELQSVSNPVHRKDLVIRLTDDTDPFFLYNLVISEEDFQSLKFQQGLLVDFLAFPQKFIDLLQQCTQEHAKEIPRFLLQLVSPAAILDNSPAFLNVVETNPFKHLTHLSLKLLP

| Molecule | Kd (SAS-6 head domain) | binding result [1] |
| --- | --- | --- |
| SAS-6 head domain (from UniProt Q6UVJ0) | 75 µM | – |
| GST-ZYG-1(1-250) K41M (kinase domain, C-terminal 6X-His) (domain or fragment, C. elegans, UniProt Q9GT24 1-250, looked up, ZYG-1 of C. elegans, kinase domain, residues 1-250, with K41M (used to reduce toxicity to E. coli); also called kinase domain (amino acids 1-250); not shown: GST, N-terminal, kept; His6, C-terminal, kept) MSGGKSGSRLSAYSHLKEIGKGGFGVVYAAQRENGEKVAIMRIDKKVPKNRVWTEIQTMKELKKSKYVVEFYEDFVEDGYTYIVMELCEGGSLQAYVREHGALDDATAVHVLRQLISAVSFMHRVNVIHRDLSAGNVFIKDSKKKKMTVKLGDFGLATTLGRGETTCTIVGTPGFIAPQVYDQEYTQSADVYSLGAVLYTMLTARNPPPKGLPPTCGMSPNAARLVEQMMDTDAKKRIPLTQIVLSEFMY | – | binds |
| GST-ZYG-1 cryptic polo box (CPB) fragment spanning 338-564 (domain or fragment, C. elegans, UniProt Q9GT24 338-564, looked up, ZYG-1 of C. elegans, cryptic polo box (CPB), residues 338-564; also called ZYG-1 CPB; not shown: GST, N-terminal, kept; His6, C-terminal, kept) GTVPPSREDRNRSQLWPIRMDRLEGQRVCTAGGRYIVELDTRCRFEVAAQGNFVKRILIVEVDEMVQTVYVHRIPDRTVRGRNGEEELITLTNNPFVYTSYSQMPKEVQNDYMRLQKMVAVTISGRVAKVTFRRPSQFPDAQAQLMENGDLRIKLPRSVIVRKMDNGEIFNCIDGIATQKQAVSGITLTKVNEVYKYLIRFEQCLNGMDRGMVCFPIVFSAGTNMVG | – | binds |
